B1: lipase: triacylglycerol acylhydrolase (lipase) E.C. 3.1.1.3 from Humicola lanuginosa (protein, UniProt O59952 23-291, looked up)
Lipase: EVSQDLFNQFNLFAQYSAAAYCGKNNDAPAGTNITCTGNACPEVEKADATFLYSFEDSGVGDVTGFLALDNTNKLIVLSFRGSRSIENWIGNLNFDLKEINDICSGCRGHDGFTSSWRSVADTLRQKVEDAVREHPDYRVVFTGHSLGGALATVAGADLRGNGYDIDVFSYGAPRVGNRAFAEFLTVQTGGTLYRITHTNDIVPRLPPREFGYSHSSPEYWIKSGTLVPVTRNDIVKIEGIDATGGNNQPNIPDIPAHLWYFGLIGTCL

Tests used:
[1] = test system: Human lung epithelial cells (BEAS-2B, ATCC # CRL-9609); experiment: Bioassay: extracellular cytokine expression of epithelial cells, assessed by ELISA; type: cell-based
Procedure: Human lung epithelial cells (BEAS-2B, ATCC # CRL-9609) were inoculated in a culture flask (NUNC), precoated with 2% (vol/vol) Ultroser G in water, at 1500 to 3000 cells per cm^2, and were grown at 37° C. in LHC-9 medium containing 2% (vol/vol) Ultroser G and 5% CO2.
The cells were subcultured before reaching confluence. The medium was removed, and fresh 0.5% polyvinylpyrrolidone (PVP) in trypin (0.25% (wt/vol))-EDTA (0.03% (wt/vol)) solution was added until cells detached (usually after 5-10 minutes at room temperature). LHC-9 medium was added, and cells were collected by centrifugation (300× g for 15 minutes), and resuspended in LHC-9 medium containing 2% (vol/vol) Ultroser G. Finally, cells were dispensed into precoated flasks (NUNC) at a density of 1500 to 3000 cells per cm^2.
When enough cells were available to perform the planned number of assays, cells were trypinated, and were transferred to a 24-well culture plate (NUNC) (1×10^5 cells per well). Incubation was for 24 hours at 37° C. in LHC-9 medium containing 2% (vol/vol) Ultroser G and 5% CO2. […]
The extracellular expression of selected cytokines was assessed by ELISA (R&D Systems), as a function of incubation time and protein concentration. […] A calibration curve was included each time, to include quantification of the detected cytokine levels, as well as to assess assay reproducibility.

Brown Norway rats = experiment: Intratracheal immunization of Brown Norway rats, IgE ELISA; type: in vivo, rat; details: rats immunized intratracheally, IgE detected by ELISA, Example 5
Procedure: Twenty intratracheal immunizations were performed weekly with 100 microliters 0.9% (wt/vol) NaCl (control group), or 100 microliters of the protein dilution mentioned before. Each group contained 10 rats. Blood samples (2 ml) were collected from the eye one week after every second immunization. Serum was obtained by blood clothing, and centrifugation.
The IgE ELISA was performed by using the following: Buffers and Solutions:
Mouse anti-Rat IgE was diluted 200×in PBS (5 micrograms/ml). 100 microliters were added to each well. The plates were coated overnight at 4° C.
Unspecific adsorption was blocked by incubating each well for 1 hour at room temperature with 200 microliters blocking buffer. The plates were washed 3×with 300 microliters washing buffer.
Unknown rat sera and a known rat IgE solution were diluted in dilution buffer: Typically 10×, 20×and 40×for the unknown sera, and ½ dilutions for the standard IgE starting from 1 microgram/ml. 100 microliters were added to each well. […]
The reaction was stopped by adding 100 microliters H2SO4. The plates were read at 492 nm with 620 nm as reference.
Rats were immunized intratracheally with unmodified and modified protease, and the protease specific IgE levels were detected by ELISA. The IgE levels detected throughout the study were integrated, and compared relative to the levels observed in rats immunized with unmodified enzyme.

Molecule	effect on cytokine production ([1]; PMSF (10 mM) and its hydrolysis products, diluted about 1000× before being applied on the cells)	IgE level in rats (Brown Norway rats)	level of all cytokines (normalized cytokine levels, FIG. 5) ([1]; epithelial cell assay, Example 5)
O=S(=O)(F)Cc1ccccc1 [PMSF, reference compound]	no detectable effect	–	–
B1	–	significantly lower IgE level	high level
